Measurements: US20230212511A1

Columns and labels:
[1] = molecular target: mutant truncated (mt) TpoR, lacking the final five amino acids (human) (UniProt P40238); test: cell-based or functional assay
[2] = molecular target: full length human TpoR (wild type), expressed on transduced cells (human) (UniProt P40238); test: cell-based or functional assay

enrichment of TpoR positive primary human T-cells (from 20% transduced) in the presence of Tpo (% TpoR positive) [1]: 77.9 | enrichment of TpoR positive primary human T-cells (from 20% transduced) in the presence of Tpo (% TpoR positive) [2]: 87.5
Substance: recombinant human Tpo (Miltenyi Biotec) (from UniProt P40225 22-195) (ligand)
